Consider one molecule from US20260000752A1 (AKSTON BIOSCIENCES, published 2026).

The target in this assay is T1, recombinant human Fc(gamma)RI, biotinylated (R&D Systems) (human, UniProt P12314 16-288).
T1 construct: also called rhFc(gamma) receptor I; Fc(gamma) Receptor I
In words: ELISA pH 7.4; insulin-Fc coated, biotinylated rhFc(gamma)RI titrated (Example 51).

T1 sequence (P12314 16-288 limits assumed): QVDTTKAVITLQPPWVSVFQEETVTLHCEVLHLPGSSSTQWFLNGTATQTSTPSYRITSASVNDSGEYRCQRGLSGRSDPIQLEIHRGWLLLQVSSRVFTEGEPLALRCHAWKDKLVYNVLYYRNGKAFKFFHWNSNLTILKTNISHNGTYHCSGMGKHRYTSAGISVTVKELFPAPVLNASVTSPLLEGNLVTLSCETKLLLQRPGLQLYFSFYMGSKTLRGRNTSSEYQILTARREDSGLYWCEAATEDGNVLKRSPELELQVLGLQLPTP

B1: insulin-Fc fusion protein of SEQ ID NO: 29 (Fc fusion)
chain: FVNQHLCGSHLVEALELVCGERGFHYGGGGGGSGGGGGIVEQCCTSTCSLDQLENYCGGGGGQGGGGQGGGGQGGGGGDCPKCPAPEMLGGPSVFIFPPKPKDTLLIARTPEVTCVVVDLDPEDPEVQISWFVDGKQMQTAKTQPREEQFNGTYRVVSVLPIGHQDWLKGKQFTCKVNNKALPSPIERTISKARGQAHQPSVYVLPPSREELSKNTVSLTCLIKDFFPPDIDVEWQSNGQQEPESKYRTTPPQLDEDGSYFLYSKLSVDKSRWQRGDTFICAVMHEALHNHYTQESLSHSPG
Regarding B1, the binding result is reported as “binds”.
